Target: T1, PAI-1 (Homo sapiens, UniProt P05121)
T1 construct: gift of Pr; P. Declerck
Experiment: Inhibition of PAI-1 anti-proteolytic activity, uPA/plasminogen chromogenic (colorimetric) assay
Type: biochemical
Conditions: uPA, bovine plasminogen, PAI-1, absorbance 405 nm
Protocol: The main physiological function of PAI-1 is to inhibit uPA and tPA proteolytic activity. […] A chromogenic substrate for plasmin (Spectrozyme PL: 0.5 mM. American Diagnostica INC) in PBS was added to the mixture in 96-well microtitration plates and kept at room temperature. The release of free p-nitro-aniline from the chromogenic substrate was measured spectrophotometrically. The activity of plasmin was determined as the absorbance at 405 nm.

T1 sequence (P05121 24-402): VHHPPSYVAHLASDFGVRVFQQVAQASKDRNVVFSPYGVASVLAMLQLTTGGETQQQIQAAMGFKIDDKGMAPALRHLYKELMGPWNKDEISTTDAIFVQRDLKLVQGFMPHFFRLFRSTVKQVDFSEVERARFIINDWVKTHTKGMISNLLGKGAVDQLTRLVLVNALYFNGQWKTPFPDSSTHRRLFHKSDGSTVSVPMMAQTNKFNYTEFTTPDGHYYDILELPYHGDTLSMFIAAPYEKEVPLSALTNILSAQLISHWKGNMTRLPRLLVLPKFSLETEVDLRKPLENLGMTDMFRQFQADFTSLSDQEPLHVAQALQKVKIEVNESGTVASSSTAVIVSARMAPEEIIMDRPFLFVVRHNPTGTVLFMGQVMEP

B1: 23K PRL: the full fragment (full-length) prolactin (protein)
chain: LPICPGGAARCQVTLRDLFDRAVVLSHYIHNLSSEMFSEFDKRYTHGRGFITKAINSCHTSSLATPEDKEQAQQMNQKDFLSLIVSILRSWNEPLYHLVTEVRGMQEAPEAILSKAVEIEEQTKRLLEGMELIVSQVHPETKENEIYPVWSGLPSLQMADEESRLSAYYNLLHCLRRDSHKIDNYLKLLKCRIIHNNNC
inhibition of PAI-1 function to inhibit uPA and tPA proteolytic activity: did not show any inhibition

From US20130035289A1, “PHARMACEUTICAL COMPOSITION FOR TREATMENT OF THROMBOSIS-RELATED DISEASES COMPRISING A FRAGMENT OF PROLACTIN (PRL)-GROWTH HORMONE (GH)-PLACENTAL LACTOGEN (PL)-FAMILY PROTEIN” (UNIVERSITE DE LIEGE, priority 2010, published 2013)
